According to paper PMC3875364:
Like-named read-outs stand apart in the source and are kept apart here.

Key:
Test in all cases: fluorescence anisotropy
[1] = target: T1, NC(1-55) WT, zinc-bound (HIV-1 (NL4-3 isolate), UniProt P12493 378-432)
[2] = target: NC(29-55) (HIV-1 (NL4-3 isolate), UniProt P12493 406-432)
[3] = target: T2, NC(1-28) (HIV-1 (NL4-3 isolate), UniProt P12493 378-405)
T2 chain: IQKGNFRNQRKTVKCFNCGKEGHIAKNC

[4] = target: T1, NC(1-55) WT, zinc-bound; remark: listed apart in the source
[5] = target: T3, NC(1-35) (HIV-1 (NL4-3 isolate), UniProt P12493 378-412)
T3 chain: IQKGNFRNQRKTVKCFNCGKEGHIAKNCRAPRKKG

B1: 5'-FAM-DNA20 (ssDNA)
DNA: CTTCTTTGGGAGTGAATTAG
What does the source list for B1?
Kd [1]: 16 ± 5 nM; Kd [2]: 867 ± 3 nM; Kd [3]: 731 ± 150 nM; Kd [4]: 57 ± 22 nM; Kd [5]: 86 ± 19 nM
